Consider 4 molecules from patent US20250289896A1 (ANALYTICAL BIOSCIENCES SHANGHAI, published 2025).

Changes are numbered by the printed parent chain. Read-outs that look alike come from different tables or passages of the source.

Assay [1] has as its target T1, cynomolgus macaque CCR8 (cynomolgus macaque, UniProt G7NYJ2 1-355).
T1 construct: whole, on cells; Overexpressed on 293T cells (293T-cCCR8) and Jurkat cells (Jurkat-cynoCCR8); also called cCCR8; cyno CCR8
In words: flow cytometry, 293T cells overexpressing cynomolgus CCR8. As to the method: (§1) Binding specificity of the anti-CCR8 antibodies (mAbs) was tested by FACS using several cell lines. […] The binding titration of the anti-CCR8 antibodies to CCR8 transfectants was performed by serial dilution of antibodies. The diluted antibody (50 μl) in flow cytometry buffer (PBS, 0.5% BSA, 1 mM EDTA) was incubated with cells (50 μl) at a concentration of 2 million cells/ml on ice for 30 min. After two washes with flow cytometry buffer, bound antibody was detected with Alexa647-labeled F(ab′)2 fragment goat anti-human IgG (Jackson ImmunoResearch #709-606-149) (1:500 dilution) for 20 minutes on ice. The fluorescence was measured on a Cytek Aurora cytometer, after two washes with flow cytometry buffer. The data were analyzed with GraphPad Prism 8.0 software to determine EC50 values.
A general note: A flow cytometer gives signals particle by particle.

The target in a further assay is T2, mCCR8 (UniProt P56484 1-353, limits assumed).
T2 construct: whole, on cells; also called 293T-mCCR8
T2 sequence (looked up): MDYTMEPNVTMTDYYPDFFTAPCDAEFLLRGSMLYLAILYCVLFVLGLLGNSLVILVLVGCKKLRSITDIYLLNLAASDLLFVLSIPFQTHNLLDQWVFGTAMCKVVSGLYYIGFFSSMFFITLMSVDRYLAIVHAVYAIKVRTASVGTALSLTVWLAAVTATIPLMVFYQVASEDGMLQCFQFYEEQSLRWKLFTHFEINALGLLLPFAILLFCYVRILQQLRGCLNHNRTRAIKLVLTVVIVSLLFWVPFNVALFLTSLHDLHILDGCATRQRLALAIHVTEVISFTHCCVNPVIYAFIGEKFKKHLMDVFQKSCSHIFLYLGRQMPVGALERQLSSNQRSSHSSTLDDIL
The experiment in a line: flow cytometry, 293T cells with mCCR8. The method, then: as §1

In assay [2] the target is T3, Human CCR8 (C-C chemokine receptor type 8) (human, UniProt P51685 1-355). In words: cell-based or functional assay.
T3 sequence (P51685 whole entry): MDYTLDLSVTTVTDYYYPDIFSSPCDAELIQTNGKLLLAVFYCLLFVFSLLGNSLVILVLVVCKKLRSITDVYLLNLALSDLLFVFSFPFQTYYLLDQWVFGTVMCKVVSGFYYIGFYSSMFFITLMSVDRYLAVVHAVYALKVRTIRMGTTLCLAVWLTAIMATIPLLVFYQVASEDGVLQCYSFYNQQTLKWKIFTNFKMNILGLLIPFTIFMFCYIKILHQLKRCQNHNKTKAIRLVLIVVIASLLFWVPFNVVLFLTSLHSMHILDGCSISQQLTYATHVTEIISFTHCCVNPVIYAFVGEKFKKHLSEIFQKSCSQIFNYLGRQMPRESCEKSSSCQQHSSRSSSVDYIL
Assay [3] concerns the target T3, Human CCR8 (C-C chemokine receptor type …). The experiment in a line: flow cytometry, Hut78 cells (endogenous human CCR8). The method, then:
as §1

The target is the same in assay [4]. In words: cell-based or functional assay. The source holds these as a separate data set.
The target is the same in assay [5]. The experiment in a line: flow cytometry, Hut78 cells (endogenous human CCR8). The method, then: as §1
The source holds these as a separate data set.

Assay [6] has as its target T1, cynomolgus macaque CCR8. The experiment in a line: flow cytometry, 293T cells overexpressing cynomolgus CCR8. As to the method: as §1
This is another data set of the same source.

Assay [7] addresses T1, cynomolgus macaque CCR8. In words: cell-based or functional assay.
In assay [8] the target is T3, Human CCR8 (C-C chemokine receptor type …). In words: flow cytometry, 293T cells overexpressing human CCR8. As to the method:
as §1

Assay [9] has the same target. Described as above. The method, then:
as §1
The source holds these as a separate data set.

For assay [10] the target is unchanged. In words: cell-based or functional assay. This is another data set of the same source.

T1 sequence (G7NYJ2 entry or part of it): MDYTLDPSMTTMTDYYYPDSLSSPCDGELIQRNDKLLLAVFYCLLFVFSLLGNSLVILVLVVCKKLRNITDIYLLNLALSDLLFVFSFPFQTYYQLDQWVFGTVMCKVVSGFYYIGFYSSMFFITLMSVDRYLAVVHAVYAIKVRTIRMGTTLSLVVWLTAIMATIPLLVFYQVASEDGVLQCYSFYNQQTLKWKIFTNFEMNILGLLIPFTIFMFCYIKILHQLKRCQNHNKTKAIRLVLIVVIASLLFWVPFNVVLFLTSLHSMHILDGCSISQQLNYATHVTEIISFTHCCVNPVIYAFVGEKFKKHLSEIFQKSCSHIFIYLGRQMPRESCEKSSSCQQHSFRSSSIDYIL

B1: ABC822 (antibody, human IgG1, kappa, V domains shown)
VH: EVQLVESGGGLMQPGRSLKLSCAASGFSFSDYYMAWVRQAPKKGLEWVASISNAGTKTYYGDSVKGRFTISRDDAKSTLYLQMNSLRSEDTATYYCVRQDLYYGRNQYWYFDFWGPGTMVTVSS
VL: IVMTQSPTSMSKSVGDRVTMNCKASQSVGSNVDWYQQKTGQSPKLLIYKTSSRFTGVPDRFTGSGSRTDFTFTISSMQAEDLALYYCVQSNSYPYTFGAGTKLELKR
A word on the EC50: it is the concentration that produces a half-maximal response. In the case of B1, the EC50 with cynomolgus macaque CCR8 [1] came to 93.8 pM; in assay [3], 2920 pM; in assay [5] it was 3160 pM; with cynomolgus macaque CCR8 [6], 464 pM; in [8] it was 68.4 pM; in assay [9], 269 pM. Moreover, in the assay with mCCR8, the binding result is on record as “no binding”. In addition, in assay [2], the “ADCC killing of Jurkat-hCCR8 cells, IC50 (pM)” value came to 9.68 pM. In assay [4], the “ADCC killing of Hut78 cells, IC50 (pM)” value stood at 6.31 pM. Also, the “ADCC killing of Jurkat-cynoCCR8 cells, IC50 (pM)” value with cynomolgus macaque CCR8 [7] was 7.19 pM.

B2: ChH2-AF (antibody, human IgG1, kappa)
heavy: not shown
light: DIVMTQAAPSVPVTPGESVSISCRSSQSLLHSNGNTYLYWFLQRPGQSPQLLIYRMSNLASGVPDRFSGSGSGTAFTLRISRVEAEDVGVYYCMQHLEYPFTFGIGTKLELKRTVAAPSVFIFPPSDEQLKSGTASVVCLLNNFYPREAKVQWKVDNALQSGNSQESVTEQDSKDSTYSLSSTLTLSKADYEKHKVYACEVTHQGLSSPVTKSFNRGEC
B2: in assay [10], the “ADCC killing of TALL-1 cells, Median EC50 (pM)” value came to 2.55 pM.

B3: ChB1-AF (antibody, human IgG1, kappa)
heavy: not shown
light: B2 light with P12V, Q27K, L97V, I105G, L109V, E110Q, L111I
As to B3, the “ADCC killing of TALL-1 cells, Median EC50 (pM)” value in assay [10] was 9.8 pM.

B4: ABC1183 (antibody, human IgG1, kappa, V domains shown)
VH: EVQLLESGGGLVQPGGSLRLSCAASGFSFSDYYMAWVRQAPGKGLEWVASISNAGTKTYYGDSVKGRFTISRDDSKNTLYLQMNSLRAEDTAVYYCVRQDLYYGRNQYWYFDFWGRGTLVTVSS
VL: DIQMTQSPSSLSASVGDRVTITCKASQSVGSNVDWYQQKPGKSPKLLIYKTSSRFTGVPSRFSGSGSRTDFTLTISSLQPEDFATYYCVQSNSYPYTFGAGTKLELKR
notes: Humanized format of ABC822
With B4, the binding result in the assay with mCCR8 was “no binding”. Besides, the “ADCC killing of Jurkat-hCCR8 cells, IC50 (pM)” value in [2] turned out to be 1.8 pM. The EC50 was determined as 4120 pM in assay [3], 445 pM with cynomolgus macaque CCR8 [6] and 373 pM in [9]. The “ADCC killing of Hut78 cells, IC50 (pM)” value in assay [4] came to 7.95 pM. Also, the “ADCC killing of Jurkat-cynoCCR8 cells, IC50 (pM)” value in the assay with cynomolgus macaque CCR8 [7] is 6.15 pM.
